Assay [1] relates to Jurkat cells. The experiment in a line: Relative proportions of live, apoptotic and dead Jurkat cells challenged with staurosporine (Sytox Red and MAb2C4:AF568 staining). Format: cell-based. The note with it: 2×10^−7M, 5×10^−7M and 10×10^−7M for 40 hours, FIG. 10.
Method: Analysis of relative proportions of live, apoptotic and dead Jurkat cells challenged with 2×10^−7M, 5×10^−7M and 10×10^−7M staurosporine for 40 hours.
In assay [2] the test system is Jurkat cells. The experiment in a line: FACS analysis of Jurkat cells induced to undergo Programmed Cell Death, live-stained with antibody:fluorophore conjugate. Format: cell-based. Here is the method:
FIG. 6. Scatter plots from FACS analysis of Jurkat cells treated with the cytotoxin staurosporine (5×10^-7M) for 40 hours to induce Programmed Cell Death including apoptosis and finally cell death (necrosis). The populations of live, apoptotic and dead cells were live-stained with 1 μg/mL MAb2C4:AF568 and/or annexin V:AF488 and the fluorescence intensity (FI) of each shown on the ordinate and abscissa respectively. A: Cell populations stained with MAb2C4:AF568 alone; B: Cell populations stained with MAb2C4:AF568 plus annexin V:AF488; C: Cell populations stained with annexin V:AF488 alone; D: Cell populations stained with MAbFLAG:AF568 plus annexin V:AF488; E: No additions.
FIG. 7. Histograms from FACS analysis of Jurkat cells induced to undergo Programmed Cell Death [PCD] (as for FIG. 6). Shown are overlaid curves representative of live, apoptotic and necrotic (dead) cell populations [A, B & C]. In D these curves are aligned for ease of comparison.
FIG. 8. Overlaid scatter plots showing increasing FI of apoptotic and dead Jurkat populations stained with MAb2C4:AF568 compared to the MAbFLAG:AF568 isotype control.
FIG. 9. Scatter plots showing FI with MAb2C4:AF568 (abscissa) and/or Sytox Red (ordinate). A: Sytox Red alone; B: Increased FI of apoptotic, transition and dead (necrotic) cell populations stained with MAb2C4:AF568; C: Overlaid dot plots of A & B.
MAb2C4 is a mouse anti-human CTR antibody (IgG1) that binds an extracellular epitope and has been conjugated with AlexaFluor 568 (MAb2C4:AF568). […] MAb2C4:AF568 was validated using cell lines expressing human calcitonin receptor (hCTR).
MAbFLAG:AF568 is an IgG1 isotype control. This conjugate was validated using a stable transfectant HEK293 cell line that expresses the PA receptor tagged with a FLAG epitope sequence. The FLAG epitope is positioned on the cell surface. Annexin V:AF488 binds the plasma membrane of dying (apoptotic) and dead (necrotic) cells.
For orientation: Flow cytometry measures light scatter and fluorescence of single cells or particles in a stream.

This note sets out measurements from US10379127B2, “Marker of cell death” (priority 2013, dated 2019).

With `CN[C@@H]1C[C@H]2O[C@@](C)([C@@H]1OC)n1c3ccccc3c3c4c(c5c6ccccc6n2c5c31)C(=O)NC4` [staurosporine], the “proportion of live cells” value in assay [1] is given as “decreases with increasing concentrations”. Further, the “proportion of apoptotic and dead cell populations” value in assay [1] (Sytox Red and MAb2C4:AF568 staining) is “increases”.

B1: MAb2C4:AF568: mouse anti-human CTR antibody (IgG1) that binds an extracellular epitope, conjugated with AlexaFluor 568 (conjugate)
VH: QVHLQQSGAELARPGASVRLSCEASGYTFTKYWMQWIKQRPGQGLEWIGAIYPGDGDSRYTPKFKGKATLTADKSSGTAYIQLSSLASEDSAVYYCARGDGTYWGQGTLVTVSA
VL: DIQMTQSPASLSASVGETVTITCRASENIYSYLAWYQQKQGKSPQLLVYKAKTLEEGVPSRFSGSGSGTQFSLKINSLQPEDFGSYYCQHHYGTPRTFGGGTKLEIK
As for B1, the “binding to apoptotic and dead cells” value in assay [2] (Example 5 summary statement) is “binds apoptotic cells and is accumulated into dead cells”. Besides, in assay [2] (Jurkat cells induced to undergo PCD as for FIG. 6, compared to MAbFLAG:AF568 isotype control, FIG. 7), the “FI (red channel) of apoptotic and dead cell populations, histograms” value is “increase in FI”. In addition, in assay [2] (Jurkat cells, staurosporine 5×10^-7M for 40 hours, live-stained 1 μg/mL, with or without annexin V:AF488, FIG. 6), the “fluorescence intensity (FI), scatter plots” value was “increased FI”. In assay [2] (compared to MAbFLAG:AF568 isotype control, FIG. 8), the “FI of apoptotic and dead Jurkat populations, overlaid scatter plots” value is on record as “increasing FI”. In assay [2] (scatter plots with Sytox Red on the ordinate, FIG. 9), the “FI of apoptotic, transition and dead (necrotic) cell populations” value was “Increased FI”.
